WO2007023782A1 (dated 2007)

Assays:
[1] = molecular target: T1, nmAb-KT (neutralizing monoclonal antibody against HM-1 killer toxin); test: SPR (BIAcore X), nmAb-KT immobilised on CM5 chip, ScFv 15.75-250 nM as analyte, 25 C, HBS-EP
T1 construct: also called nmb-KT; HM-1 neutralizing monoclonal antibody

[2] = molecular target: T1, nmAb-KT (neutralizing monoclonal …); test: SPR (BIAcore X), nmAb-KT immobilised; ratio of Ka values
[3] = molecular target: T2, BSA (Bovine serum albumine) (bovine, UniProt P02769 25-607); test: SPR (BIAcore X), BSA negative control
T2 construct: Negative control; also called negative control
T2 sequence (P02769 25-607 limits assumed): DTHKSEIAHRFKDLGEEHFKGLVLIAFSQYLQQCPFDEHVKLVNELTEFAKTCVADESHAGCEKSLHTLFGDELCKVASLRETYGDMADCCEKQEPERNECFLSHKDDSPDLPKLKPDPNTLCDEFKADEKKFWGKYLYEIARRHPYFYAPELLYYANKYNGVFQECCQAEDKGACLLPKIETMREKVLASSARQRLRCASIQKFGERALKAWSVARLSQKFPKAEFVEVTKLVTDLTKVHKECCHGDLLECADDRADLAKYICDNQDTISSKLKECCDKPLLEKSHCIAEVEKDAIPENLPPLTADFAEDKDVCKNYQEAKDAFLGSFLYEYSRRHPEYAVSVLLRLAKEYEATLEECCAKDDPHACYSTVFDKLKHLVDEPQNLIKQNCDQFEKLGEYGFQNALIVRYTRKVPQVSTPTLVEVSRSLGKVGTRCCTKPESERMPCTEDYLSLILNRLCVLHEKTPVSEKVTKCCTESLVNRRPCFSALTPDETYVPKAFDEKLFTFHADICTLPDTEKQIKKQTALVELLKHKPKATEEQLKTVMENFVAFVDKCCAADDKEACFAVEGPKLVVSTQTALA

[4] = molecular target: T1, nmAb-KT (neutralizing monoclonal …); test: SPR (BIAcore X), nmAb-KT immobilised on CM5 chip; Ka = kon/koff
[5] = molecular target: T1, nmAb-KT (neutralizing monoclonal …); test: SPR (BIAcore X), nmAb-KT immobilised, differs in the last digit from Table 2
[6] = molecular target: T1, nmAb-KT (neutralizing monoclonal …); test: SPR (BIAcore X), nmAb-KT immobilised, rounded against Table 2

B1: ScFv-A2 (scFv, V domains shown)
VH: QVKLQQSGAELMKPGASVKISCKATGYTFSSYWIEWVKQRPGHGLEWIGEILPGSGSTNYNEKFKGKATFTADTSSNTAYMQLSSLTSEDSAVYYCARYYGNYYAMDYWGQGTTVTVSS
notes: Mouse anti-idiotypic single chain Fv, VH-(Gly4Ser)3 linker-VL, with a C-terminal E-Tag; also called ScFv KTIdAb; anti-idiotypic ScFv
- koff [1]: 0.00458 s⁻¹
- kon [1]: 305000 M⁻¹ s⁻¹
- fold of affinity constant Ka against ScFv-A1 or ScFv-A4 [2]: ~1.2 fold
- fold of affinity constant Ka against ScFv-A3 [2]: ~2 fold
- binding result [3]: no binding (tested: 15.75 nM-250 nM ScFv)
- Ka [4]: 6.66e+07 M⁻¹
- Ka [5]: 6.65e+07 M⁻¹

B2: ScFv-A4 (scFv)
scFv: MAQVKLQQSGAELMKPGASVKISCKATGYTFSSYWIEWVKQRPGHGLEWIGEILPGSGSTNYNEKFKGKATFTADTSSNTAYMQLSSLTSEDSAVYYCARYYGNYYAMDYWGQGTTVTVSSGGGGSGGGGSGGGGSDIVLTQSPAIMSASPGEKSPSPAVSAQVYVPATCTGTSRSQKPPPNPGFMAHPTWLLESQVASVAVGLENSYSLTISSMEAEDVATYYCFQGSGYPLTFGSGTKLEIKRAAAGAPVPYPDPLEPR
notes: as for B1
- koff [1]: 0.005 s⁻¹
- kon [1]: 224000 M⁻¹ s⁻¹
- binding result [3]: no binding (tested: 15.75 nM-250 nM ScFv)
- Ka [4]: 4.48e+07 M⁻¹

B3: ScFv-A1 (scFv)
scFv: MAQVKLQQSGAELMKPGASVKISCKATGYTFSSYWIEWVKQRPGHGLEWIGEILPGSGSTNYNEKFKGKATFTADTSSNTAYMQLSSLTSEDSAVYYCARYYGNYYAMDYWGQGTTVTVSSGGGGSGGGGSGGGGSDIVLTQSPAIMSASPGEKVTITCSVSSSISSSNLHWYQQKSETSPKPWIYGTSNLASGVPGRFSGSGSGNSYSLTISSMEAEDVATYYCFQGSGYPLTFGSGTKLEIKRAAAGAPVPYPDPLEPR
notes: also called ScFv-Al; ScFv KTIdAb
- koff [1]: 0.00507 s⁻¹
- kon [1]: 243000 M⁻¹ s⁻¹
- Ka [6]: 4.8e+07 M⁻¹
- binding result [3]: no binding (tested: 15.75 nM-250 nM ScFv)
- Ka [4]: 4.79e+07 M⁻¹

B4: ScFv-A3 (scFv)
scFv: MAQVKLQQSGAELMKPGASVKISCKATGYTFSSYWIEWVKQRPGHGLEWIGEILPGSGSTNYNEKFKGKATFTADTSSNTAYMQLSSLTSEDSAVYYCARYYGNYYAMDYWGQGTTVTVSSGGGGSGGGGSGGGGSDIVLTQSPAIMSASPGEKVTITCSVSSSRSSSNLHWYQQKSETSPKPWIYGTSNLASGVPGRFSGSGSGKLLLSHDQQHEAEDVATYYCFQGSGYPLTFGSGTKLEIKRAAAGAPVPYPDPLEPR
notes: as for B1
- koff [1]: 0.00751 s⁻¹
- kon [1]: 229000 M⁻¹ s⁻¹
- binding result [3]: no binding (tested: 15.75 nM-250 nM ScFv)
- Ka [4]: 3.05e+07 M⁻¹
- Ka [5]: 3.04e+07 M⁻¹
